Laboratory results as given in patent US20250270296A1 (ACADEMIA SINICA, published 2025).
Changes are numbered by the printed parent chain.

Columns and labels:
[1] = target: SARS-CoV-2 S protein, full length, wild type (on pseudovirus, authentic virus hCoV-19/Taiwan/4/2020 (SARS-CoV-2, UniProt P0DTC2 14-1273)); assay: cell-based or functional assay
[2] = target: SARS-COV-2 RBD-His protein (SARS-CoV-2, UniProt P0DTC2 319-541)

B1: RBD-chAb-28 (antibody, V domains shown)
VH: QVQLQQPGTELVMPGASVKMSCKASGYTFTDYYLHWMKQRPGQGLEWIGAIDSSDSYTDYNQNFKGKATLTVDESSSTAYMHLSSLTSEDSAVYYCARGKDAYDRRPWFAYWGQGTLVTVSA
VL: DIQMTQTTSSLSASLGDRVTISCSASQGIRYYLNWYQQKPDGTVKLLIYYTSNLHSGVPSRFSGSGSGTDYSLTISNLEPEDIATYYCQQYNKLPYTFGGGTKLDIK
With B1 as the binder, how does the “pseudovirus neutralization assay IC50” value [1] read?
Its value is 8.75 ng/mL.

B2: RBD-chAb-45 (antibody, V domains shown)
VH: EVQLQQSGPELVKPGASVKISCKTSGYTFTEYTIYWVKQSLGKSLEWIGGNNPNNDDTTYKQFFKGKATLTVDKSSSTAYMELRSLTSEDSAVYYCARDGYPYYYALDFWGQGTSVTVSS
VL: DILMTQSQKFMSTSVGDRVSVTCKSSQNVGTNVAWYQQKPGQSPKALIYSASYRYSGVPDHFTGSGSGTDFTLTISNVQSADLAEYFCQQYNNYPWTFGGGTKLDIK
Which Kd [2] does the source give for B2 here?
Its Kd is 0.282 nM.

And the koff [2]?
Its koff is 0.000282 s⁻¹.

And the kon [2]?
Its kon is 997000 M⁻¹ s⁻¹.

What about the “pseudovirus neutralization assay IC50” value [1] of the same binder?
Its value is 2.3 ng/mL.

B3: RBD-chAb-51 (antibody, V domains shown)
VH: B2 VH with V18A, I34M, L41H, N51I, D56G, K61N, F63T, Y103F, F109Y, T114I
VL: DIVMTQSQKFMSTSVGDRVSVTCKARQIVGTNVAWYQQKPGQSPKALIYSASYRYSGVPDRFTGSGSGTDFTLTITNVHSEDLAEFFCHQYNSYPWTFGGGTKLDIK
B3 was tested. Which “pseudovirus neutralization assay IC50” value [1] did it give?
The value was 0.98 ng/mL.

B4: RBD-chAb-15 (antibody, V domains shown)
VH: EVQLEESGPGLVQPSQSLSITCTVSDFSLTTYGVHWVRQSPGKGLEWLGVIWSGGSTDYNAAFISRLSISKDNSKSQVFFKMNSLQTNDTAIYYCARMGDGYYVGAMDYWGQGTSVTVSS
VL: DIQLTQSPAILSVSPGERVSFSCRASQSIGTSIHWYQQRTNGSPRHLIKYASESISGIPSRFSGSGSGTDFTLTINGVESEDIADYYCQQGHNWPLTFGAGTKLDIK
With B4 as the binder, how does the PRNT50 [1] read?
Its PRNT50 is < 36 ng/mL.

B5: RBD-chAb-1 (antibody, V domains shown)
VH: EVQLQQSGPQLVRPGASMKISCKASGYSFTTYWMHWVKQRPGQGLQWIGMIDPSDSETRLNQKFKDKATLTVDKSSSTAYMQLSSPTSEDSAVYYCARDFDYDRTMDYWGQGTSVTVSS
VL: DIVMSQSPSSLAVSVGEKVTMSCKSSQSLLFSSSQKNYLAWYQQKAGQSPKLLIFWASTRESGVPDRFTGSGSGTDFTLTISSVKAEDLAIYYCKQYYKYPLTFGAGTKLDIK
Which PRNT50 [1] does the source give for B5 here?
The PRNT50 was < 36 ng/mL.
